Results taken from the supplement of paper PMC9112550, “Optimization of the antimicrobial peptide Bac7 by deep mutational scanning” (BMC Biology, 2022).

Test system: Escherichia coli TOP10
Test: shrunken log2 fold change of peptide-encoding DNA abundance (4.5 h post-induction vs induction); higher = less antimicrobial activity (less host growth inhibition)
Conditions: time post-induction: 4.5 h; library: site-saturation at positions 5, 18, 19, 20
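Note: peptides expressed intracellularly from a pBAD plasmid library in pooled LB shake-flask culture, induced with 0.3% L-arabinose, DNA abundance read by NGS, three biological replicates, DESeq2 with apeglm shrinkage.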

Sequence	shrunken log2 fold change
RRIRTRPPRLPRPRPRPGGTPRP	-0.00579
RRIRFRPPRLPRPRPRPWFDPRP	-0.101
RRIRSRPPRLPRPRPRPTCVPRP	0.0671
RRIRKRPPRLPRPRPRPIMQPRP	-0.0251
RRIRCRPPRLPRPRPRPPVMPRP	0.298
RRIRFRPPRLPRPRPRPKNRPRP	-0.284
RRIRNRPPRLPRPRPRPCEMPRP	0.019
RRIRHRPPRLPRPRPRPFHDPRP	-0.152
RRIRVRPPRLPRPRPRPYCTPRP	-0.284
RRIRGRPPRLPRPRPRPDFEPRP	0.988
RRIRRRPPRLPRPRPRPSMGPRP	-0.0183
RRIRVRPPRLPRPRPRPDRLPRP	0.314
RRIRERPPRLPRPRPRPSIPPRP	-0.758
RRIRHRPPRLPRPRPRPDDHPRP	0.0155
RRIRGRPPRLPRPRPRPNSRPRP	0.107
RRIRVRPPRLPRPRPRPVFWPRP	0.378
RRIRTRPPRLPRPRPRPAQHPRP	0.0266
RRIRFRPPRLPRPRPRPMQHPRP	0.0148
RRIRPRPPRLPRPRPRPGMFPRP	-0.0259
RRIRTRPPRLPRPRPRPSKNPRP	-0.325
RRIRSRPPRLPRPRPRPMSMPRP	-0.293
RRIRLRPPRLPRPRPRPWYKPRP	-0.0396
RRIRNRPPRLPRPRPRPNIMPRP	-0.599
RRIRIRPPRLPRPRPRPYKWPRP	-0.424
RRIRWRPPRLPRPRPRPIWIPRP	-0.186

Sequence	shrunken log2 fold change
RRIRLRPPRLPRPRPRPLIVPRP	-0.131
RRIRDRPPRLPRPRPRPDWNPRP	-0.0851
RRIRYRPPRLPRPRPRPDAKPRP	-0.118
RRIRDRPPRLPRPRPRPPASPRP	0.513
RRIRNRPPRLPRPRPRPETDPRP	-0.05
RRIRPRPPRLPRPRPRPWINPRP	-0.719
RRIRSRPPRLPRPRPRPVIVPRP	-0.191
RRIRNRPPRLPRPRPRPVYHPRP	-0.0311
RRIRTRPPRLPRPRPRPSPNPRP	-0.337
RRIRPRPPRLPRPRPRPLCSPRP	-0.431
RRIRRRPPRLPRPRPRPGSIPRP	-0.0979
RRIRQRPPRLPRPRPRPCYCPRP	-0.338
RRIRGRPPRLPRPRPRPACLPRP	0.792
RRIRVRPPRLPRPRPRPGGVPRP	0.224
RRIRDRPPRLPRPRPRPYPIPRP	0.0369
RRIRWRPPRLPRPRPRPPRQPRP	0.209
RRIRRRPPRLPRPRPRPINEPRP	-0.0486
RRIRWRPPRLPRPRPRPTYIPRP	-0.428
RRIRQRPPRLPRPRPRPKDRPRP	-0.115
RRIRQRPPRLPRPRPRPHKWPRP	-0.2
RRIRRRPPRLPRPRPRPFDLPRP	0.0765
RRIRCRPPRLPRPRPRPSCMPRP	-0.313
RRIRVRPPRLPRPRPRPAPMPRP	0.324
RRIRVRPPRLPRPRPRPSLYPRP	-0.62
RRIRRRPPRLPRPRPRPPVFPRP	0.55

Sequence	shrunken log2 fold change
RRIRKRPPRLPRPRPRPWLVPRP	0.177
RRIRLRPPRLPRPRPRPVFSPRP	-0.112
RRIRKRPPRLPRPRPRPFHMPRP	-0.424
RRIRTRPPRLPRPRPRPVANPRP	0.133
RRIRERPPRLPRPRPRPIRCPRP	0.0648
RRIRPRPPRLPRPRPRPLIPPRP	-0.19
RRIRPRPPRLPRPRPRPSKPPRP	0.0728
RRIRTRPPRLPRPRPRPVVSPRP	0.075
RRIRQRPPRLPRPRPRPQHKPRP	-0.205
RRIRLRPPRLPRPRPRPDCGPRP	0.0932
RRIRARPPRLPRPRPRPCMLPRP	-0.0396
RRIRVRPPRLPRPRPRPPRDPRP	0.303
RRIRERPPRLPRPRPRPFCKPRP	0.0112
RRIRNRPPRLPRPRPRPQIIPRP	-0.106
RRIRIRPPRLPRPRPRPLHPPRP	-0.0764
RRIRVRPPRLPRPRPRPENQPRP	-0.008
RRIRRRPPRLPRPRPRPAFHPRP	0.083
RRIRERPPRLPRPRPRPSHMPRP	-0.431
RRIRGRPPRLPRPRPRPRKYPRP	0.0397
RRIRTRPPRLPRPRPRPLRVPRP	0.767
RRIRGRPPRLPRPRPRPAHGPRP	0.204
RRIRSRPPRLPRPRPRPPPDPRP	0.848
RRIRERPPRLPRPRPRPCWGPRP	0.0218
RRIRTRPPRLPRPRPRPAITPRP	-0.44
RRIRGRPPRLPRPRPRPLRNPRP	1.03

Sequence	shrunken log2 fold change
RRIRTRPPRLPRPRPRPDVWPRP	0.33
RRIRQRPPRLPRPRPRPSEEPRP	-0.226
RRIRCRPPRLPRPRPRPAWCPRP	0.128
RRIRYRPPRLPRPRPRPMFVPRP	-0.228
RRIRYRPPRLPRPRPRPLCEPRP	-0.238
RRIRRRPPRLPRPRPRPPQTPRP	0.828
RRIRMRPPRLPRPRPRPVTNPRP	0.0903
RRIRLRPPRLPRPRPRPEMHPRP	-0.132
RRIRHRPPRLPRPRPRPRMFPRP	-0.219
RRIRQRPPRLPRPRPRPERCPRP	0.00749
RRIRVRPPRLPRPRPRPAGSPRP	0.29
RRIRGRPPRLPRPRPRPQWYPRP	0.25
RRIRGRPPRLPRPRPRPKPDPRP	1.11
RRIRHRPPRLPRPRPRPPFSPRP	-0.166
RRIRPRPPRLPRPRPRPPNHPRP	0.0555
RRIRLRPPRLPRPRPRPKYRPRP	0.0356
RRIRFRPPRLPRPRPRPEWNPRP	-0.21
RRIRTRPPRLPRPRPRPGVRPRP	0.272
RRIRARPPRLPRPRPRPRYSPRP	-0.121
RRIRYRPPRLPRPRPRPLQKPRP	-0.0364
RRIRWRPPRLPRPRPRPGRPPRP	0.42
RRIRPRPPRLPRPRPRPGIHPRP	-0.137
RRIRSRPPRLPRPRPRPYQWPRP	0.0794
RRIRTRPPRLPRPRPRPCEWPRP	0.013
RRIRLRPPRLPRPRPRPKMNPRP	-0.37

Sequence	shrunken log2 fold change
RRIRMRPPRLPRPRPRPVEKPRP	1.01
RRIRLRPPRLPRPRPRPKIVPRP	-0.142
RRIRCRPPRLPRPRPRPYFQPRP	-0.846
RRIRMRPPRLPRPRPRPKDWPRP	1.43
RRIRFRPPRLPRPRPRPSESPRP	-0.0918
RRIRYRPPRLPRPRPRPPAPPRP	0.76
RRIRRRPPRLPRPRPRPPQIPRP	0.908
RRIRCRPPRLPRPRPRPCSSPRP	0.0866
RRIRVRPPRLPRPRPRPAYMPRP	-0.271
RRIRERPPRLPRPRPRPLAAPRP	-0.0502
RRIRCRPPRLPRPRPRPHMKPRP	-1.1
RRIRHRPPRLPRPRPRPGCTPRP	-0.514
RRIRARPPRLPRPRPRPQEVPRP	-0.0933
RRIRERPPRLPRPRPRPECTPRP	0.187
RRIRYRPPRLPRPRPRPWKHPRP	-0.0695
RRIRSRPPRLPRPRPRPPISPRP	-0.0261
RRIRRRPPRLPRPRPRPYNVPRP	-0.181
RRIRPRPPRLPRPRPRPLAKPRP	0.261
RRIRERPPRLPRPRPRPLSQPRP	-0.406
RRIRIRPPRLPRPRPRPEWPPRP	0.0836
RRIRQRPPRLPRPRPRPCLSPRP	-0.383
RRIRVRPPRLPRPRPRPSNQPRP	-0.507
RRIRNRPPRLPRPRPRPKEFPRP	-0.012
RRIRNRPPRLPRPRPRPGTLPRP	-0.0615
RRIRKRPPRLPRPRPRPSVRPRP	0.528

Sequence	shrunken log2 fold change
RRIRWRPPRLPRPRPRPTGNPRP	0.2
RRIRKRPPRLPRPRPRPDCIPRP	0.75
RRIRIRPPRLPRPRPRPWSPPRP	-0.269
RRIRERPPRLPRPRPRPHAYPRP	-0.352
RRIRKRPPRLPRPRPRPICTPRP	-0.0207
RRIRERPPRLPRPRPRPGLTPRP	-0.174
RRIRTRPPRLPRPRPRPSVCPRP	-0.203
RRIRMRPPRLPRPRPRPHKDPRP	-0.0811
RRIRSRPPRLPRPRPRPRCEPRP	0.152
RRIRWRPPRLPRPRPRPCMVPRP	-0.155
RRIRTRPPRLPRPRPRPLWHPRP	-0.221
RRIRVRPPRLPRPRPRPFKVPRP	-0.243
RRIRDRPPRLPRPRPRPHIWPRP	-0.0717
RRIRHRPPRLPRPRPRPLMCPRP	0.0994
RRIRARPPRLPRPRPRPTVMPRP	0.497
RRIRLRPPRLPRPRPRPRSFPRP	-0.107
RRIRPRPPRLPRPRPRPLEWPRP	-0.00787
RRIRCRPPRLPRPRPRPQFRPRP	-0.434
RRIRERPPRLPRPRPRPYKHPRP	-0.684
RRIRPRPPRLPRPRPRPYLAPRP	-0.528
RRIRCRPPRLPRPRPRPMFDPRP	-0.246
RRIRTRPPRLPRPRPRPHLFPRP	-0.111
RRIRSRPPRLPRPRPRPNTDPRP	-0.442
RRIRWRPPRLPRPRPRPPRWPRP	0.591
RRIRLRPPRLPRPRPRPKDWPRP	0.467
